Reference: patent publication US20170360778, “Methods for Treating a Cytomegalovirus Infection” (The J. David Gladstone Institutes, published 2017)

Target: T1, IE2 (IE86) MBP fusion (Human cytomegalovirus, UniProt P19893 P19893:1-580)
T1 sequence: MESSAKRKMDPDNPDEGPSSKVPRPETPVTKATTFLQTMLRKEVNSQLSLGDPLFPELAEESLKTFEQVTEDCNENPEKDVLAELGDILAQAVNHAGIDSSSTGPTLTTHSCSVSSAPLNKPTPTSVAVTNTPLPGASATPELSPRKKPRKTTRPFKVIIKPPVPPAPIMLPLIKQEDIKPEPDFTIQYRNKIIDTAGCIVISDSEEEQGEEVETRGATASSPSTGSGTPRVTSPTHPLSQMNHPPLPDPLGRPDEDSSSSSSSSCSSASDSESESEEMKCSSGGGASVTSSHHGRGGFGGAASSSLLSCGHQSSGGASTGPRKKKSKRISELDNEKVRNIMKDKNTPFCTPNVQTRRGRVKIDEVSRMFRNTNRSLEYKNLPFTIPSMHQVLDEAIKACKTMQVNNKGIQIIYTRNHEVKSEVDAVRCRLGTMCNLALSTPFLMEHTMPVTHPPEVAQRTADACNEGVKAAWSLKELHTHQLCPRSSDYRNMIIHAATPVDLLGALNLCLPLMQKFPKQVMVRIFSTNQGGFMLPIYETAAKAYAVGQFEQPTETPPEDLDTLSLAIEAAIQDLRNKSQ
Assay: EMSA; IE2-CRS EMSA in presence of various amounts of Hoechst 33258 (BB33258); exact probe sequence not stated, CRS core given
Details: tags: MBP fusion, expressed in E. coli BL21, amylose column

B1: hCMV CRS (IE2 binding site) (dsDNA)
DNA 1: TCGTTTAGTGAACCG
DNA 2: CGGTTCACTAAACGA
B1: binds.
